Laboratory results taken from PMC12529880, “Structural mechanisms for cold‐adapted activity of phosphoenolpyruvate carboxykinase” (Protein Science : A Publication of the Protein Society, 2025).

System: T1, C=C(OP(=O)(O)O)C(=O)O
T1 construct: full length, 622 residues, N-terminal His6-SUMO tag cleaved off with no additional amino acids; codon-optimised gene in pESUMO-Star; E. coli BL21(DE3); EC 4.1.1.32
Experiment: purified protein
Format: biochemical, Polaromonas naphthalenivorans
Conditions: 25 °C, pH 7.5, 1 mM GDP, 50 mM KHCO3, 4 mM MgCl2, 100 μM MnCl2, PEP carboxylation direction

## PnPEPCK (Polaromonas naphthalenivorans CJ2)
  Km: 2500 ± 650 µM
  kcat: 23 ± 1.4 s⁻¹
  kcat/Km: 9200 M⁻¹ s⁻¹
